# In US20160287696A1, “PAN POLLEN IMMUNOGENS AND METHODS AND USES FOR IMMUNE RESPONSE MODULATION” (LA JOLLA INSTITUTE FOR ALLERGY AND IMMUNOLOGY, priority 2013, published 2016):
# B1: ovalbumin (protein, UniProt P01012 2-386, looked up)
# Ovalbumin: GSIGAASMEFCFDVFKELKVHHANENIFYCPIAIMSALAMVYLGAKDSTRTQINKVVRFDKLPGFGDSIEAQCGTSVNVHSSLRDILNQITKPNDVYSFSLASRLYAEERYPILPEYLQCVKELYRGGLEPINFQTAADQARELINSWVESQTNGIIRNVLQPSSVDSQTAMVLVNAIVFKGLWEKAFKDEDTQAMPFRVTEQESKPVQMMYQIGLFRVASMASEKMKILELPFASGTMSMLVLLPDEVSGLEQLESIINFEKLTEWTSSNVMEERKIKVYLPRMKMEEKYNLTSVLMAMGITDVFSSSANLSGISSAESLKISQAVHAAHAEINEAGREVVGSAEAGVDAASVSEEFRADHPFLFCIKHIATNAVLFFGRCVSP
# notes: unrelated protein ovalbumin used as model allergen
# B2: NTGA 6: Phl p wild type sequence, Table 2 (protein)
# chain: MADEKLAKLREAVAGLPQISDNEKSGFISLVSRYLSGEEEHIEWPKIHTPTDEVVVPYDTVDAPPEDLEATKALLDKLAVLKLNGGLGTTMGCTGPKSVIEVRNGFTFLDLIVLQIESLNKKYGSNVPLLLMNSFNTHEDTLKIVEKYANSSIDIHTFNQSQYPRVVADEFLPWPSKGKTDKDGWYPPGHGDIFPSLMNSGKLDLLLSQGKEYVFIANSDNLGAIVDMKILNHLIHKQNEYCMEVTPKTLADVKGGTLISYEGRVQLLEIAQVPDAHVDEFKSIEKFKIFNTNNLWVNLKAIKRLVEADALKMEIIPNPKEVDGVKVLQLETAAGAAIRFFDHAIGINVPRSRFLPVKATSDLQLVQSDLYTLVDGFVTRNSARTDPSNPSIELGPEFKKVGSFLGRFKSIPSIVELDSLKVSGDVWFGSGIVLKGKVTITAKPGVKLEIPDGAVLENKDINGAEDL
# modifications: Phleum Pratense
# B3: NTGA 52: Phl p wild type sequence, Table 2 (protein)
# chain: MDACRLLLLLLLGLLGLLAPLASAQLSREFYKASCPDAEKIVAAVIEKKLKEDPGTAAGLLRLLFHDCFANGCDASILIDPLSNQSAEKEAGPNISVRGFEVIDDIKKELEAKCPKTVSCADIVALGTRDAVRISGGPAYEVPTGRRDSLVSNREEADNNLPGPDIPIPKLTSEFLSRGFTPEEMVVLLAGGHSIGKVRCIFIEPDATPMDPGYQASISKLCDGPNRDTGFVNMDEHNPNVIDSSYFANVLAKKMPLTVDRLLGLDSKTTPIIKNMLNKPNDFMPTFAKAMEKLSVLKVITGKDG
# modifications: Phleum Pratense
# B4: NTGA 86/51: Phl p wild type full length protein from which PG+ peptides of NTGA's 86 and 51 derive (protein)
# chain: MSPAEPTREESVYMAKLAEQAERYEEMVEFMERVAKATGGAGPGEELSVEERNLLSVAYKNVIGARRASWRIISSIEQKEEGRGNDAHATTIRSYRSKIEAELAKICDGILALLDSHLVPSAGAAESKVFYLKMKGDYHRYLAEFKSGAERKEAAESTMNSYKAAQDIALADLAPTHPIRLGLALNFSVFYYEILNSPDRACNLAKQAFDEAISELDSLGEESYKDSTLIMQLLRDNLTLWTSDTNEDGGDEIKEAPAPKESGD
# modifications: Phleum Pratense
# notes: Phl p wild type full length protein from which PG+ peptides of NTGA's 86 and 51 derive
# B5: NTGA 8: Phl p wild type sequence, Table 2 (protein)
# chain: FEGCLAKSYKSEKSDKSATYDYSANIECEKEPPKPLYGGGILTGAEAPAPVSAGGKKLLMAKSKSAPAKGSTLKVELEKDTHYTLSAWLQLSKSTGDVKAILVTPDGNFNTAGMLVVQSGCWTMLKGGATSFAAGKGELFFETNVTAELMVDSMSLQPFSFEEWKSHRHESIAKERKKKVKITVHGSDGKVLPDAELSLERVAKGFPLGNAMTKEILDIPEYEKWFTSRFTVATMENEMKWYSTEYDQNQELYEIPDKMLALAEKYNISVRGHNVFWDDQSKQMDWVSKLSAPQLKKAMEKRMKNVVSRYAGKLIHWDVLNENLHYSFFEDKLGKDASAEVFKEVAKLDDKPILFMNEYNTIEEPNDAAPLPTKYLAKLKQIQSYPGNSKLKYGIGLESHFDTPNIPYVRGSLDTLAQAKVPIWLTEIDVKKGPKQVEYLEEVMREGFAHPGVKGIVLWGAWHAKECYVMCLTDKNFKNLPVGDVVDKLITEWKAVPEDAKTDDKGVFEAELFHGEYNVTVKHKS
# modifications: Phleum Pratense
# B6: NTGA 87: Phl p wild type sequence, Table 2 (protein)
# chain: MAVKVYVVYYSMYGHVGKLAEEIKKGASSVEGVEVKVWQVPEILSEEVLGKMGAPPKTDVPIISPQELAEADGILFGFPTRFGMMASQMKAFFDATGGLWREQSLAGKPAGVFFSTGTQGGGQETTPLTAVTQLTHHGMVFVPVGYTFGAKMFDMEKVQGGSPYGAGTFAGDGSRWPSEMELEHAFHQGKYFAGIAKKLKGS
# modifications: Phleum Pratense
# B7: NTGA 3: Phl p wild type sequence, Table 2 (protein)
# chain: MDDHKEHKEKEHTGGNPEVNEEEEEDEEAKRAVLLGPQVPLKEQLELDKDDESLRRWKEQLLGQVDTEQLGETAEPEVKVVDLTILSPDRPDLVLPIPFVADEKGYAFALKDGSTYSFRFSFIVSNNIVSGLKYTNTVWKTGVRVENQKMMLGTFSPQPEPYIYVGEEETTPAGIFARGSYSAKLKFVDDDGKVYLEMSYYFEIRKDWPTGQ
# modifications: Phleum Pratense
# Experiments:
# splenocytes [1] = experiment: Bystander tolerance induction by prophylactic SLIT in mice, IP sensitization with NTGA 86/51 together with OVA; type: in vivo; details: for NTGA 86/51 specific in vitro proliferation of splenocytes vs buffer treated mice: FIG. 4
# Source text: Bystander tolerance induction by prophylactic SLIT treatment with A0086 (FIG. 4). The ability of NTGA 86/51 to induce bystander tolerance, i.e. to induce tolerance against a non-related protein was investigated by SLIT treating the mice for two weeks with NTGA 86/51 followed by an IP sensitization with NTGA 86/51 together with the unrelated protein ovalbumin (OVA). Following this splenocytes were stimulated in vitro either with NTGA 86/51to confirm the ability of this protein to induce tolerance towards itself, or with OVA to investigate if NTGA 86/51 can induce bystander tolerance towards an unrelated protein.
# [2] = test system: cultured PBMCs of the allergic donors; experiment: ELISPOT of IL-5 or IFNg production by cultured PBMCs of TG allergic donors in response to peptide; type: cell-based, human; details: for NTGA's containing at least one T cell epitope, Th+ (Col 2): NTGA number given = criterion met, TG allergic donors n=20; for No of PG+ & th+ peptides per NTGA / No of PP & Th+ peptides per NTGA: Table 6; for No of PG+ & th+ peptides per NTGA: PG+ peptides recognized by T cells of grass allergic donors (n=20); for No of PP & Th+ peptides per NTGA: PP peptides recognized by T cells of grass allergic donors (n=20); for # Th+: Table 7, peptides per NTGA recognized by T cells of grass allergic donors (n=20)
# In short: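 Counts of responding donors among 20 TG-allergic subjects, judged by ELISPOT for IL-5 or IFNg (positive: minimum 20 SFCs/10^6 PBMCs, stimulation index 2 or more, P .05). Cells were pre-expanded with TG pollen extract or peptide pool, then stimulated at 1×10^5/well with 10 μg/mL peptide.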
# splenocytes [3] = experiment: Prophylactic SLIT tolerance induction in mice, splenocyte proliferation; type: in vivo, BALB/c mice; details: prophylactic SLIT two weeks; for tolerance towards the immunogen itself (proliferation of splenocytes vs buffer (sham) treated mice): FIG. 3A / 3C
# Source text: Then the tolerance induction of NTGA 86/51 was investigated in a prophylactic mice model using sublingual administration (FIG. 3)
# The ability of NTGA 86/51 and NTGA 6 to induce prophylactic tolerance was investigated by SLIT treating naive BALB/c mice with NTGA 86/51 or NTGA 6 for two weeks (Monday-Friday) followed by one Phl p extract sensitization or sensitization to the immunogen itself (NTGA 86/51 or NTGA 6) as described above. Eleven days after the sensitization, splenocytes were harvested and stimulated in vitro with NTGA 86/51 as well as Phl p extract.
# splenocytes [4] = experiment: Sensitization pattern: in vitro proliferation (3H-thymidine) of splenocytes of mice sensitized to Phl p extract; type: cell-based, BALB/c mice; details: mice sensitized IP with Phl p extract; 6 days stimulation
# Source text: Initially, the sensitization pattern of an immunogen of the invention (NTGA 86/51) was investigated in BALB/c mice sensitized to Phl p extract (FIG. 2). For the purposes of these studies, the immunogen were expressed in E. Coli using standard expression protocols.
# Mice were sensitized by one intraperitoneal injection with Phl p extract adsorbed to aluminium hydroxide. Eleven days later the mice were euthanized and splenocytes were stimulated in vitro with Phl p extract, Phl p 1, Phl p 5, NTGA 86/51. The cells were incubated for 6 days at 37° C. under 5% CO2 and incorporated 3H-thymidine was counted and used as a measure for T cell proliferation.
molecule,measurement,setting,value
B1,NTGA 86/51 specific in vitro proliferation of splenocytes vs buffer treated mice,splenocytes [1],able to downregulate
B2,immune reactivity (SFC counts in ELISPOT) of highly conserved PG+ peptides derived from the NTGA,[2],high immune reactivity
same,"NTGA's containing at least one T cell epitope, Th+ (Col 2)",[2],6
same,No of PG+ & th+ peptides per NTGA,[2],22
same,No of PP & Th+ peptides per NTGA,[2],14
same,# Th+,[2],9
same,T cell reactivity of sequences contained in the protein,[2]; among top pan-pollen NTGA's ranked by number of PP peptides,highly T cell reactive sequences
same,PG+ peptides recognized by grass allergic donors,"[2]; n=20 grass allergic donors, PG+ peptides of the NTGA",two
same,tolerance towards the immunogen itself (proliferation of splenocytes vs buffer (sham) treated mice),splenocytes [3],capable of inducing tolerance towards itself
B3,# Th+,[2],1
B4,"NTGA's containing at least one T cell epitope, Th+ (Col 2)",[2],86/51
same,NTGA 86/51 specific in vitro proliferation of splenocytes vs buffer treated mice,splenocytes [1],reduced proliferation
same,OVA specific in vitro proliferation of splenocytes vs buffer treated mice (bystander tolerance),splenocytes [1]; FIG. 4B,decreased
same,tolerance towards the immunogen itself (proliferation of splenocytes vs buffer (sham) treated mice),splenocytes [3],capable of inducing tolerance towards the immunogen itself
same,tolerance towards Phl p extract (proliferation of splenocytes vs buffer (sham) treated mice),splenocytes [3]; FIG. 3B,capable of inducing tolerance
same,in vitro T-cell response (splenocyte proliferation) compared to the response to Phl p 5,splenocytes [4],much weaker
same,in vitro T-cell response (splenocyte proliferation) compared to the response towards the Phl p extract,splenocytes [4],much weaker
B5,# Th+,[2],0
B6,No of PG+ & th+ peptides per NTGA,[2],0
same,No of PP & Th+ peptides per NTGA,[2],0
same,# Th+,[2],0
B7,No of PG+ & th+ peptides per NTGA,[2],0
same,No of PP & Th+ peptides per NTGA,[2],0
same,# Th+,[2],0
